Reference: paper PMC7803741 (2021)
Like-named read-outs stand apart in the source and are kept apart here.

Experiments:
Assay in all cases: ITC
[1] = molecular target: T1, GABAAR-associated protein (GABARAP) (mouse, UniProt Q9DCD6 1-117)
GABARAP K66E = GABARAP K66E (mouse, UniProt Q9DCD6 1-117, K66E)
GABARAP E17A = GABARAP E17A (mouse, UniProt Q9DCD6 1-117, E17A)
GABARAP K24E = GABARAP K24E (mouse, UniProt Q9DCD6 1-117, K24E)
LC3A = LC3A (mouse, UniProt Q91VR7 1-121)
LC3B = LC3B (mouse, UniProt Q9CQV6 1-120)
GABARAPL2 = GABARAPL2 (mouse, UniProt P60521 1-117)
Sequence of GABARAPL2 (P60521 whole entry): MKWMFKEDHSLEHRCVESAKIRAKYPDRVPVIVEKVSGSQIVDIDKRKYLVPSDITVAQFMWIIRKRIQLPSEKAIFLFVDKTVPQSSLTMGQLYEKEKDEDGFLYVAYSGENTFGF

[2] = molecular target: T1, GABAAR-associated protein (GABARAP); remark: listed apart in the source

T1 sequence (Q9DCD6 whole entry): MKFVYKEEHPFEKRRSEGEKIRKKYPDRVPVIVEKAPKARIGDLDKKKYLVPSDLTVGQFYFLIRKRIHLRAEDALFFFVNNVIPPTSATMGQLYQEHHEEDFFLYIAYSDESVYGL
Sequence of GABARAP K24E (Q9DCD6 whole entry K24E): as the sequence (Q9DCD6 whole entry) above, with K24E counted along it
Sequence of GABARAP E17A (Q9DCD6 whole entry E17A): as the sequence (Q9DCD6 whole entry) above, with E17A counted along it
Sequence of GABARAP K66E (Q9DCD6 whole entry K66E): as the sequence (Q9DCD6 whole entry) above, with K66E counted along it

In the case of VEEERVIVSDEEIEEARQKAPLEITEY [AnkB-WR peptide], the Kd [1] is reported as > 100 µM.

Binder PEDDWTEFSSEEIREARQAAASHAPS [AnkG-WT peptide] has a Kd [1] of 0.007 µM.

For PEDDWTRFSSEEIREARQAAASHAPS [AnkG-ER peptide], the Kd [1] was 0.007 µM.

In the case of ERDEEYGYECLDGKDCAS [GABAAR γ2 subunit GIM (GABARAP interacting motif, 398–415)], the Kd (GABARAP K66E) is reported as 23.6 µM, the Kd (GABARAP E17A) is reported as 6.8 µM and the Kd (GABARAP K24E) is reported as > 100 µM. For the same binder, the Kd (LC3A) was > 300 µM, the Kd (LC3B) was > 300 µM and the Kd (GABARAPL2) was > 200 µM. For the same binder, the Kd [1] was 6.8 µM.

PAPTIDIRPRSATIQMNNATHLQERDEEYGYECLDGKDCASFFCCFEDCR (domain or fragment) [GABAA receptor γ2 subunit 375-424] was tested, and the Kd [2] was 5.1 µM.
